Experimental data: paper PMC8775495

Assays:
WA20_H86K = assay: not stated; in solution; shown in Figure S1, whose legend was not shown
[1] = molecular target: recombinant Agrocybe cylindracea galectin (Agrocybe cylindracea); assay: as above

| stoichiometry N (WA20_H86K) | stoichiometry N [1] | Substance |
| --- | --- | --- |
| 2 | – | WA20_H86K |
| – | 2 | recombinant Agrocybe cylindracea galectin (natural protein) |
